Assays:
[1] = molecular target: cynomolgus monkey CTLA4-his protein (Acro biosystems, Cat#CT4-C5227) (cynomolgus monkey) (UniProt G7PL88); assay: SPR, Biacore T200; benchmark on Protein G chip, CTLA4-his as analyte
[2] = molecular target: cynomolgus monkey CTLA4-his protein (Acro biosystems, Cat#CT4-C5227) (cynomolgus monkey) (UniProt G7PL88); assay: SPR, Biacore; antibody captured on anti-human IgG CM5 chip, CTLA4-his as analyte

Sequence of cynomolgus monkey CTLA4-his protein (Acro biosystems, Cat#CT4-C5227) (cynomolgus monkey) (G7PL88 entry or part of it): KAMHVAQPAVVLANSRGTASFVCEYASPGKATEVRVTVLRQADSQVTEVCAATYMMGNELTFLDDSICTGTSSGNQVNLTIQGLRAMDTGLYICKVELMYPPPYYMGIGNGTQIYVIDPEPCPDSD

Kd [1]: 2.97 nM | Kd [2]: 2.2 nM
Substance: Yervoy® (Bristol-Myers Squibb Co, Cat# NDC: 0003-2327-11) (antibody)
